Measured values: the RNAGym collection of RNA variant scans (doi:10.1073/pnas.2313332121)

B1: TPR t1 (parent)
chain: GACCAAUCUGCCCUCAGAGCUCGAGAACAUCUUCGGAUGCAGAGGAGGCAGGCUUCGGUGGCGCGAUAGCGCCAACGUCCUCAACCUCCAAUGCAUCCCACCACAUGAUGAUGCCUGAAGAGCCUUGGUUUUUUG

Variants of: B1
Test: polymerase ribozyme fitness, log enrichment relative to wild type (log ratio); higher = more active; in vitro selection for triplet polymerase activity
Method in brief: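 A single round of triplicate in vitro selection, including frozen incubation at −7 °C, was applied to PCR-built, transcribed mutant libraries of each subunit of a heterodimeric triplet polymerase ribozyme. Illumina sequencing of input and output libraries retained genotypes with ≥10 input reads and ≥1 read per output. Fitness is the base-2 logarithm of genotype enrichment divided by wild-type enrichment, from inverse-variance-weighted replicate averages.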

Variant	polymerase ribozyme fitness (log ratio)
A95C G120U U129A	-1.76
C102G C104U	-6.12
C98A A118U	-4.71
A103G A118G C124G	-5.79
C101A G110U A119G	-2.89
C101U C104G U109G	-6.55
C94A U125G	-1.1
C94A U125A	-0.423
U96A G110A	-2.45
C97G G113C G122U	-5.4
C101A G135U	-2.11
U96G U109C	-4.85
C104G C124U	-6.14
C104U A111G	0.178
U96G C102G G113U	-5.71
C94A U112G	-1.48
C104U G127C	-1.03
C97G U112A	-3.48
C94U G117C	-3.83
C104U G120U	-0.787
C101A A111C	-0.305

Variant	polymerase ribozyme fitness (log ratio)
C97U C104U A111U C124A	-2.15
A100U U132A	-0.727
A100U U132C	-0.866
U96C A105U	-3.06
A95U C102U U125G	-4.42
C104U A118G	0.462
U96C G110U	-0.753
U96C G110A	-0.613
C98A A111U G122A C124G	-6.05
C97U C101U C102A	-4.12
C104A A118U U125G U130A	-3.67
C97G C115G G120C	-5.54
C102G G120U	-6.6
C98A U109A	-5.81
C101A G110U	-3.04
C97U U116G G135U	-3.49
C101U G120C	-0.354
C101U G120U	-1.36
U96G U130G	-1.28
C104A U106A	-2.51
C97U C124G	1.72

Variant	polymerase ribozyme fitness (log ratio)
C97U A118U	-2.1
C98U G113U	-3.5
A95C A119U	-1.28
A105C G110A C115U A119G	-6.05
U96A C123A	-1.45
C97U C123A	0.00246
A103U C114U	-4.99
C98A C101U G110U G120U C123G U130G	-5.9
C101G U133A	-1.55
C104U U129C	-0.415
C94A A121C G122U U129A	-2.35
C99A A103C C104A	-4.54
C97A C123U	-2.71
U96A G117A G120A U130C	-3.72
C101U G128C	-2.13
A103U A118G	-5.56
A103U A118U	-4.32
G93U U130A U131C	-1.29
C99U U129G	-3.83
C99U G110A	-5.27
U96A A105U	-4.09

Variant	polymerase ribozyme fitness (log ratio)
A105C A121G	0.5
C99G C124U	-6.43
C102U C123A	-2.63
C102U C123U	-0.21
C104A C114A	-4.74
A103G	-3.07
A103U	-4.71
A103C	-5.01
C94A U129G	-1.07
A95C U131A	-0.642
C102A U125C	-4.05
C102U C114G	-4.58
C102U C114A	-3.75
C99U U130A	-3.71
C94A C123G	-0.728
A103U G110C	-7.11
A95U C102U C104A G110C G128U	-5.5
C101A C114G	-3.4
C97U U109A	-2.09
U96C U112A A121U	1.86
